Measured values taken from patent US20180312587A1 (ADURO BIOTECH HOLDINGS EUROPE B V, published 2018).

Tests used:
[1] = molecular target: T1, hSIRPα expressed on primary human cells (human, UniProt P78324 31-504); assay: flow cytometry, blockade of DyLight488-hCD47/Fc binding to CD14+ enriched monocytes, donor 1
T1 construct: whole, on cells; also called hSIRPα on primary human CD14+ monocytes; on primary human granulocytes
Description: In addition, the ability of hSIRPα.50A to block the interaction between hSIRPα and recombinant hCD47/Fc-protein was assessed. For this purpose, CD14+ monocytes were isolated from Ficoll-purified human peripheral blood mononuclear cells (PBMCs) using RosetteSep human monocyte enrichment cocktail (Stemcell). The percentage of monocytes present after the enrichment was determined by flow cytometry on the FACSVerse (BD Biosciences) based on CD14 staining using an APC-Cy7-conjugated mouse-anti-human CD14 detection antibody (BD Biosciences). […] After this labeling procedure, cells were washed two times, resuspended in PBS/1% BSA containing 0.1 μg/mL DAPI (BioLegend), and analysed by flow cytometry on the FACSVerse (BD Biosciences). Data were processed and analysed with FlowJo V10 software (FlowJo, LLC).
(§1) To assess the blocking ability of hSIRPα.50A, CD14+ enriched monocytes cells were seeded in 96-well round bottomed tissue culture plates and incubated for 45 minutes with FcR Blocking Reagent (Miltenyi Biotec) and hSIRPα.50A antibody (200 μg/mL and dilutions thereof) in PBS/1% BSA at 4° C. […] After this labeling procedure, cells were washed two times, resuspended in PBS/1% BSA containing 0.1 μg/mL DAPI (BioLegend), and analysed by flow cytometry on the FACSVerse (BD Biosciences). Data were processed and analysed with FlowJo V10 software (FlowJo, LLC).

[2] = molecular target: T2, human SIRPα variant 1 (human, UniProt P78324 31-504); assay: flow cytometry, blockade of DyLight488-hCD47/Fc binding to U-937 cells
T2 construct: full length ORF on transfected CHO-K1 or HEK293 cells; entry includes the signal peptide; also called hSIRPαV1; SIRPαV1
T2 sequence (P78324 31-504 limits assumed, change not shown): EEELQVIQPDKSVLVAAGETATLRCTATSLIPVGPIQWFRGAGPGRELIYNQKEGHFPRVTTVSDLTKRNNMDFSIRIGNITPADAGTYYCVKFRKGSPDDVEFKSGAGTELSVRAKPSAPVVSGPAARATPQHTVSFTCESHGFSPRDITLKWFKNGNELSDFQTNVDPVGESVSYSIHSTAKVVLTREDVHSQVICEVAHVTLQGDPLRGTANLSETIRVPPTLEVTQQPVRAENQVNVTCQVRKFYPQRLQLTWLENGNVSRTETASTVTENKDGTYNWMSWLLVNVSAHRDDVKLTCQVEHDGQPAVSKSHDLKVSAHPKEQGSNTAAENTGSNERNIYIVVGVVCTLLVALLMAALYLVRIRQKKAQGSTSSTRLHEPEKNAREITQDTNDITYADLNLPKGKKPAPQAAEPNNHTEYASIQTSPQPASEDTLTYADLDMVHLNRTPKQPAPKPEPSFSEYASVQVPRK
Description: as §1, with “For this purpose, THP-1 (ATCC TIB-202) and U-937 (ATCC CRL-1593.2) monocyte cell lines were used as” for “To assess”, “source” for “blocking ability”, “hSIRPα in the assay. THP-1 and U-937” for “hSIRPα.50A, CD14+ enriched monocytes”, “FACSCanto II” for “FACSVerse”
As depicted in FIG. 4 and the following Table 11, binding of recombinant hCD47 fused to an Fc domain of human IgG1 was monitored in the presence of increasing amounts of the hSIRPα.50A antibody. Antibody hSIRPα.50A blocked the hSIRPα/hCD47 interaction, using the flow cytometry-based method described above. […] IC50 values represent the concentration at which half of the inhibition is observed.

[3] = molecular target: T3, hSIRP-VβC1βC2γ (human, UniProt O00241 30-398); assay: CELISA, CHO-K1 transfectants, domain exchange study; nd = not detected
T3 chain: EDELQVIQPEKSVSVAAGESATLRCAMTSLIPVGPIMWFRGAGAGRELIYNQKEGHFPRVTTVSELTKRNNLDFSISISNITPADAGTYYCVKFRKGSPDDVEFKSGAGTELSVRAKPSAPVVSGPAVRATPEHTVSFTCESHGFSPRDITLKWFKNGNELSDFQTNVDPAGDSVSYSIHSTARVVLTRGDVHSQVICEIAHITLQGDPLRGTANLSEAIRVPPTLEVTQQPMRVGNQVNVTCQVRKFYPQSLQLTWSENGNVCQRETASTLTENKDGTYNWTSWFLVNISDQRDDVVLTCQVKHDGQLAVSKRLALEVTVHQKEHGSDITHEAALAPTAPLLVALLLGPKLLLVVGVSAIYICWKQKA
Source text: Based on the fold of SIRPα/β1/γ, the extracellular region can be subdivided into three separate domains: the Ig-like (immunoglobulin-like) V-type (IgV), Ig-like C1-type (IgC1), and Ig-like C2-type (IgC2) domain. The IgV domain is also known as the ligand-binding N-terminal domain of SIRPα and SIRPγ (which binds to CD47). The human SIRPβ1/γ mutants were designed based on the full length hSIRPβ1 sequence (SEQ ID NO: 38) and each individual Ig-like domain was substituted for the equivalent domain of human SIRPγ (SEQ ID NO: 40). […] Binding of hSIRPα.40A to the exchange mutants was tested using CELISA. To this end, CHO-K1 cells were transiently transfected, using Lipofectamine 2000, with the pCI-neo vectors encoding hSIRPαV1, hSIRPαV2, hSIRPβ1, hSIRP-VγC1βC2β, hSIRP-VβC1γC2β, and hSIRP-VβC1βC2γ, respectively. The transfected cells were cultured at 37° C., 5% CO₂ and 95% humidity in medium (DMEM-F12 (Gibco) with 5% New Born Calf serum (Biowest) and Pen/Strep (Gibco)) until confluent. Subsequently, cells were trypsinized and seeded in 96-well flat-bottom tissue culture plates and cultured at 37° C., 5% CO₂ and 95% humidity in culture medium until confluent. […] Reactions were stopped with 0.5 M H₂SO₄ and absorbances were read at 450 and 610 nm.

T1 sequence (P78324 31-504): as the sequence (P78324 31-504 limits assumed, change not shown) above

IC50 [1]: 4.62 nM | IC50 [2]: 7.16 nM | binding result [3]: no binding
B1: hSIRPα.50A (antibody, V domains shown)
VH: QVQLQQSGPELVKPGASVRISCKASGFTFTNYYIHWVKQRPGQGLEWIGWIYPGNVNTKYNEKFKAKATLTADKSSTTAYMQLSSLASEDSAVYFCARPTIIATDFDVWGAGTTVTVSS
VL: DIVMTQSHKFMSTSVGDRVNITCKASQGVGTAVGWYQQKPGQSPRLLIYWASTRHTGVPDRFTGSGSGTDFSLAISNVQSEDLADYFCQQYSTYPFTFGGGTNLEIK
notes: light chain constant domain not tied; also called mouse hSIRPα.50A; hSIRPα.50A.mIgG1
